Source: patent US20240150411A1 (University of Washington, published 2024)

Target: T1, I53-50A trimer
T1 construct: also called trimeric I53-50A
T1 chain: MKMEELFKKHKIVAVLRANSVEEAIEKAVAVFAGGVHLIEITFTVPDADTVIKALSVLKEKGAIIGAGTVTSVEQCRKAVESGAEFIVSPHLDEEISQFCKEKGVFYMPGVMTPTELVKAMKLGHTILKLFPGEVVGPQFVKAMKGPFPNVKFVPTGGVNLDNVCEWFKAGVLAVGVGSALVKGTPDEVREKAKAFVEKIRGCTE
Test: in vitro co-assembly into partial valency nanostructures, purified by size exclusion chromatography

B1: I53-50B.4PosT1 pentamer (designed binder)
chain: MNQHSHKDHETVRIAVVRARWHAEIVDACVSAFEAAMRDIGGDRFAVDVFDVPGAYEIPLHARTLAETGRYGAVLGTAFVVNGGIYRHEFVASAVINGMMNVQLNTGVPVLSAVLTPHNYDKSKAHTLLFLALFAVKGMEAARACVEILAAREKIAA
notes: Expressed and purified as in Bale et al; also called I53-50B.4PT1; I53-50B.4PosT1 pentamers
B1: binds.
